Like-named read-outs stand apart in the source and are kept apart here.
Molecular target: T1, IscR (Pseudomonas aeruginosa PAO1) (UniProt Q9HXI7)
T1 sequence: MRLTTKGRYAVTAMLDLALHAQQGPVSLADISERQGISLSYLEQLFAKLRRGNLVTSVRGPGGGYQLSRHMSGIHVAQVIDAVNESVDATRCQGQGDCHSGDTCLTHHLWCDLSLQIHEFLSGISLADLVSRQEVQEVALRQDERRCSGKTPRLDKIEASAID
Assay: EMSA

Sequence | binding (20 mM Tris-HCl pH 8.0, 50 mM KCl, 4 mM MgCl2, 0.5 mM EDTA, 0.02 mg/ml BSA, 5 mM DTT, 10% glycerol, 200 ng poly(dI-dC), 3 fmol probe in 25 ul, 25 C 20 min, 7% …) | binding
GTCAACCGCAAGCGCTGATCGGCCGCTGGCTATCCCCGTCAGCGGGGATAGCCACAAGCCTTGCGGGTGTTTCTGCCGGGTGCTTTGCGGGACACTAGGGGAGTATCGGTATCCGGAGCGGACCATGACCGCCAGCGAAGAGAAATTCACCCGCCAGACGCTGCTCGACGTGCAGCCTCTGACT (double strand) [fprB promoter fragment (native), 184 bp] | binds | 
GTCAACCGCAAGCGCTGATCGGCCGCTGGCTATCCCCGTCAGCGGGGATATTTACAAGCCTTGCGGGTGTTTCTGCCGGGTGCTTTGCGGGACACTAGGGGAGTATCGGTATCCGGAGCGGACCATGACCGCCAGCGAAGAGAAATTCACCCGCCAGACGCTGCTCGACGTGCAGCCTCTGACT (double strand) [fprB promoter fragment, IscR site GCC to TTT] |  | no binding

— paper PMC4521836
